{"source": "IntAct's records for PubMed 33758649", "parents": {"B1": {"name": "Protein PALS1 (Homo sapiens), Q8N3R9 (parent)", "chain": "MTTSHMNGHVTEESDSEVKNVDLASPEEHQKHREMAVDCPGDLGTRMMPIRRSAQLERIRQQQEDMRRRREEEGKKQELDLNSSMRLKKLAQIPPKTGIDNPMFDTEEGIVLESPHYAVKILEIEDLFSSLKHIQHTLVDSQSQEDISLLLQLVQNKDFQNAFKIHNAITVHMNKASPPFPLISNAQDLAQEVQTVLKPVHHKEGQELTALLNTPHIQALLLAHDKVAEQEMQLEPITDERVYESIGQYGGETVKIVRIEKARDIPLGATVRNEMDSVIISRIVKGGAAEKSGLLHEGDEVLEINGIEIRGKDVNEVFDLLSDMHGTLTFVLIPSQQIKPPPAKETVIHVKAHFDYDPSDDPYVPCRELGLSFQKGDILHVISQEDPNWWQAYREGDEDNQPLAGLVPGKSFQQQREAMKQTIEEDKEPEKSGKLWCAKKNKKKRKKVLYNANKNDDYDNEEILTYEEMSLYHQPANRKRPIILIGPQNCGQNELRQRLMNKEKDRFASAVPHTTRSRRDQEVAGRDYHFVSRQAFEADIAAGKFIEHGEFEKNLYGTSIDSVRQVINSGKICLLSLRTQSLKTLRNSDLKPYIIFIAPPSQERLRALLAKEGKNPKPEELREIIEKTREMEQNNGHYFDTAIVNSDLDKAYQELLRLINKLDTEPQWVPSTWLR"}}, "data": [{"variants_of": "B1", "conditions": "with vemp_sars E", "values": [{"variant": "F318W", "effect of a mutation on the interaction": "increasing interaction strength"}]}]}
